Measurements published in patent US20110097340A1 (SCHERING, published 2011).

Key:
human VEGF165 [1] = molecular target: T1, human VEGF165 (human, UniProt P15692 207-395); assay: Biacore 2000, hVEGF165 amine-coupled on C1 chip, antibody injected, 1:1 fit
T1 construct: Recombinant (R&D Systems 293-VE; sf21- or HEK 293-expressed depending on the assay); Biotinylated in the DELFIA assay; also called hVEGF165; rHu-VEGF165
Protocol: (§1) The VEGF binding affinity of these IgGs was tested on a Biacore 2000® by injecting the antibodies over a very low density antigen surface. Human or murine VEGF₁₆₅ was immobilized via standard amine coupling methods to flow cells on a C1 (planar carboxy surface) chip. Approximately 85 RU of each antigen was immobilized and a reference flow cell was activated and blocked. Antibodies were injected over the chip surface for 400 seconds at two different concentrations, after which dissociation was monitored. Data was analyzed by Scrubber® using double referencing and fitting with a 1:1 interaction. Regenerations were performed with 90 mM HCl with 500 mM NaCl.
Target sequence in this assay (P15692 other isoform, or with tags, fused parts or gaps limits assumed): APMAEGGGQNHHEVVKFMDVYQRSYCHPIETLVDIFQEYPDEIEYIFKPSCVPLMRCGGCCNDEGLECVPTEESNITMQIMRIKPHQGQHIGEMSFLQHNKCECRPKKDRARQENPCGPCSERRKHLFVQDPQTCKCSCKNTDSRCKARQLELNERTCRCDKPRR

human VEGF165 [2] = molecular target: T1, human VEGF165; assay: Biacore competition, inhibition of hVEGF165 binding to immobilized VEGF-R2
Protocol: (§2) VEGF receptor (R&D Systems) was immobilized on the CM5 chip at a density of approximately […] via amine coupling (Biacore). VEGF-R2 was immobilized on fc2 and VEGF-R1 was immobilized on fc4. Flow cells 1 and 3 served as references, and were activated and blocked in the same manner as the receptor immobilized flow cells. […] Samples were incubated for at least one hour prior to initiation of the Biacore analysis run. […] Samples were injected at 10 μl/minute for 1.5 minutes over all flow cells.
(§3) For data analysis, the slope of a linear portion of association (30 seconds to one minute) of the association phase was determined with a linear fit. […] Data was plotted in GraphPad Prism and fit with a sigmoidal dose response curve to calculate the EC₅₀.

hVEGF121-G88S [3] = molecular target: T2, hVEGF121-G88S (human, UniProt P15692-9 27-147, G88S); assay: sandwich ELISA, antibody coated, CHO-K1 supernatant
T2 construct: Transiently expressed in CHO-K1 cells; culture supernatant used
T2 sequence (looked up): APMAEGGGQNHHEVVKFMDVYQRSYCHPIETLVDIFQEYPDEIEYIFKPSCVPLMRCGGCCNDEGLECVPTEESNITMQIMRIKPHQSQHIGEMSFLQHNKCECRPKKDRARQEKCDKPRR

human VEGF165 [4] = molecular target: T1, human VEGF165; assay: Biacore 2000, IgG2 captured on Protein A/G, hVEGF165 injected, 1:1 fit
Protocol: (§4) Dilution and running buffer for these experiments was HBS-EP (Biacore) with 1:50 dilution of Chemiblocker® (Chemicon). […] Antibody concentrations were approximately 0.5 μg/ml. hVEGF₁₆₅ expressed from sf21 cells was injected over five minutes at 30 μl/minute using the Kinject feature with 15 minute dissociation over fc1 and 2. […] Regenerations were performed with two injections of 100 mM HCl at 50 μl/minutes for twelve seconds each. Data was processed in Scrubber2 and fit by a 1:1 Langmuir interaction model after double referencing of the control flow cell and blank injections.

murine VEGF165 [5] = molecular target: T3, murine VEGF165 (murine, UniProt Q00731-2 27-190); assay: Biacore 2000, mVEGF165 amine-coupled on C1 chip, antibody injected
T3 construct: also called mVEGF165; rMu-VEGF165
T3 sequence (looked up): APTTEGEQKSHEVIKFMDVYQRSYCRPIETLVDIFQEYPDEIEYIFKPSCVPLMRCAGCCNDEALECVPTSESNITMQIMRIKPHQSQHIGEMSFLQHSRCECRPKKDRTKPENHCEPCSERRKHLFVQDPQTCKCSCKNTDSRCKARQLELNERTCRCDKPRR
Protocol: as §1

murine VEGF165 [6] = molecular target: T3, murine VEGF165; assay: Biacore; IgG2, Biacore: weak binding, KD >100 nM
human VEGF165 [7] = molecular target: T1, human VEGF165; assay: cell-based or functional assay
human VEGF165 [8] = molecular target: T1, human VEGF165; assay: Biacore competition, inhibition of hVEGF165 binding to immobilized VEGF-R1
Protocol: as §2, §3

human VEGF165 [9] = molecular target: T1, human VEGF165; assay: Biacore, IgG2 (summary table); lower end of the range of IgG2 Biacore results
Protocol: as §4

murine VEGF165 [10] = molecular target: T3, murine VEGF165; assay: sandwich ELISA, antibody coated; epitope ELISA, fold over CHO background: at background, no binding seen
Protocol: (§5) The plate was blocked with 30% ChemiBlock™ reagent (Millipore) in PBS for one hour at room temperature, and 30, 60, or 100 μl of CHO-K1 culture supernatant for each mutant, or 1 μg/ml of wild-type hVEGF₁₂₁, recombinant hVEGF₁₆₅, or recombinant mVEGF₁₆₅, was added to appropriate wells. After one hour of incubation, the plate was washed and incubated with a biotinylated goat polyclonal anti-VEGF antibody for one hour at room temperature. Detection was performed with HRP-conjugated streptavidin, followed by TMB chromogenic substrate (Calbiochem) using manufacturer protocol.

human VEGF165 [11] = molecular target: T1, human VEGF165; assay: cell-based or functional assay; remark: listed apart in the source
human VEGF165 [12] = molecular target: T1, human VEGF165; assay: cell-based or functional assay; remark: listed apart in the source
Target sequence in this assay (P15692 other isoform, or with tags, fused parts or gaps limits assumed): as the sequence (P15692 other isoform, or with tags, fused parts or gaps limits assumed) above

hVEGF121-G92A = molecular target: T4, hVEGF121-G92A (human, UniProt P15692-9 27-147, G92A); assay: sandwich ELISA, antibody coated
T4 construct: Transiently expressed in CHO-K1 cells; culture supernatant used
T4 sequence (looked up): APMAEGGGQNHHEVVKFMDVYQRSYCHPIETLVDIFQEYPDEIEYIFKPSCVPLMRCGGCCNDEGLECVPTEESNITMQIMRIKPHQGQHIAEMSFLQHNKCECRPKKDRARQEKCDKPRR
Protocol: (§6) Mutants were transiently expressed in CHO-K1 cells, and cell supernatants were collected for binding analysis by ELISA.
as §5

human VEGF165 [13] = molecular target: T1, human VEGF165; assay: sandwich ELISA, antibody coated
Protocol: as §6, §5

wild-type hVEGF121 = molecular target: T5, wild-type hVEGF121 (human, UniProt P15692-9 27-147); assay: sandwich ELISA, antibody coated
T5 sequence (looked up): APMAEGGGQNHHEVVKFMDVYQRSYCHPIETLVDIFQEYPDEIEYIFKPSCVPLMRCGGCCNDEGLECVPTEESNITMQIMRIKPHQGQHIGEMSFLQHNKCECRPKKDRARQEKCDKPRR
Protocol: as §6, §5

hVEGF121-M81A = molecular target: T6, hVEGF121-M81A (human, UniProt P15692-9 27-147); assay: sandwich ELISA, antibody coated
T6 construct: Transiently expressed in CHO-K1 cells; culture supernatant used
T6 sequence (looked up): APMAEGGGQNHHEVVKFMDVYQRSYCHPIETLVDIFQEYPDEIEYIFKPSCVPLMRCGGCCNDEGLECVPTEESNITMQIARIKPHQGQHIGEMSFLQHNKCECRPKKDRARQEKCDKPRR
Protocol: as §6, §5

hVEGF121-Q89A = molecular target: T7, hVEGF121-Q89A (human, UniProt P15692-9 27-147, Q89A); assay: sandwich ELISA, antibody coated
T7 construct: Transiently expressed in CHO-K1 cells; culture supernatant used
T7 sequence (looked up): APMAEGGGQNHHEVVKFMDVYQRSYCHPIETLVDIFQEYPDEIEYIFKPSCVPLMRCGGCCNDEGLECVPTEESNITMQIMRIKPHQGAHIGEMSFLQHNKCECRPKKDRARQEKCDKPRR
Protocol: as §6, §5

hVEGF121-G88S [14] = molecular target: T2, hVEGF121-G88S; assay: sandwich ELISA, antibody coated
Protocol: as §6, §5

human VEGF165 [15] = molecular target: T1, human VEGF165; assay: Biacore, IgG2 (summary table)
Protocol: as §4

B1: XPA.10.064 IgG2 (antibody, V domains shown)
VH: EVQLVQSGAEVRKPGASVKVSCKASGYSFTGHYIHWVRQAPGQGLEWMGWINPYSGGTNFPREFQGRVTMTRDTSVNTVYMELTRLTSDDTSVYYCARDHRIVGGLDYWGQGTLVTVSS
VL: SYVLTQPPSASGTPGQRVTISCSGSSSNIGINYVYWYQQLPGTAPKLLIYRNDQRPSGVPDRFSGSKSGTSASLAISGLRSEDEADYYCATWDDSLSGVVFGGGTKVTVL
notes: Converted to IgG with gamma-2 heavy chain constant region; Expressed in 293E cells; also called parental XPA.10.064; VPA.10.064
Kd (human VEGF165 [1]): 1.71 nM | koff (human VEGF165 [1]): 0.000335 s⁻¹ | kon (human VEGF165 [1]): 193000 M⁻¹ s⁻¹ | EC50 (human VEGF165 [2]): 0.129 µg/mL | binding result (hVEGF121-G88S [3]): no binding | Kd (human VEGF165 [4]): 1.24 nM | koff (human VEGF165 [4]): 0.000286 s⁻¹ | kon (human VEGF165 [4]): 230000 M⁻¹ s⁻¹ | Kd (murine VEGF165 [5]): 197 nM | Kd (murine VEGF165 [6]): > 100 nM | Inhibition of HUVEC proliferation, EC50 (µg/ml), HEK 293 hVEGF165 (human VEGF165 [7]): 0.66 µg/mL | EC50 (human VEGF165 [8]): 0.159 µg/mL | Kd (human VEGF165 [9]): 1.24 to 1.71 nM | fold binding over CHO background (murine VEGF165 [10]): 0.7 fold | HPP: sf21-hVEGF165, IgG2 (IC50) (human VEGF165 [11]): 0.15 µg/mL | HUVEC proliferation, geometric mean IC50 (human VEGF165 [12]): 1.32 nM | Raw data (ELISA signal) (hVEGF121-G92A): 2.08 | fold binding over CHO background (hVEGF121-G92A): 22.8 fold | Raw data (ELISA signal) (human VEGF165 [13]): 2.09 | fold binding over CHO background (human VEGF165 [13]): 23 fold | Raw data (ELISA signal) (wild-type hVEGF121): 2.65 | fold binding over CHO background (wild-type hVEGF121): 29.1 fold | Raw data (ELISA signal) (hVEGF121-M81A): 0.868 | fold binding over CHO background (hVEGF121-M81A): 9.5 fold | Raw data (ELISA signal) (hVEGF121-Q89A): 0.319 | fold binding over CHO background (hVEGF121-Q89A): 3.5 fold | Raw data (ELISA signal) (hVEGF121-G88S [14]): 0.0778 | fold binding over CHO background (hVEGF121-G88S [14]): 0.9 fold

B2: XPA.10.072 IgG2 (antibody, V domains shown)
VH: RLQLVQSGAEVRKPGASVKVSCKASGYSFTGHYIHWARQAPGQGLEWMGWINPYSGGTNFPREFQGRVTMTRDTSVNTVYMELTRLTSDDTSVYYCARDHRIVGGLDYWGQGTLVTVSS
VL: QSVLTQPPSASGTPGQRVTISCSGSSSNLGSNFVYWYQQLPGTAPKLLIYRNHQRPSGVPDRFSGSKSGTSASLAISGLRSEDEADYYCASWDDSLRVVVFGGGTKLTVL
notes: IgG2 (gamma-2 constant region); also called XPA.072; VPA.10.072
EC50 (human VEGF165 [2]): 0.173 µg/mL | binding result (hVEGF121-G88S [3]): no binding | Kd (human VEGF165 [4]): 1.66 nM | koff (human VEGF165 [4]): 0.000279 s⁻¹ | kon (human VEGF165 [4]): 168000 M⁻¹ s⁻¹ | Kd (murine VEGF165 [6]): > 100 nM | Inhibition of HUVEC proliferation, EC50 (µg/ml), HEK 293 hVEGF165 (human VEGF165 [7]): 0.68 µg/mL | EC50 (human VEGF165 [8]): 0.121 µg/mL | Kd (human VEGF165 [15]): 1.66 to 1.7 nM | fold binding over CHO background (murine VEGF165 [10]): 1.1 fold | HPP: sf21-hVEGF165, IgG2 (IC50) (human VEGF165 [11]): 0.24 µg/mL | HUVEC Proliferation Potency (HPP): HEK293-hVEGF165, IgG2 (IC50) (human VEGF165 [11]): 0.68 µg/mL | Raw data (ELISA signal) (hVEGF121-G92A): 2.78 | fold binding over CHO background (hVEGF121-G92A): 30.5 fold | Raw data (ELISA signal) (human VEGF165 [13]): 2.66 | fold binding over CHO background (human VEGF165 [13]): 29.2 fold | Raw data (ELISA signal) (wild-type hVEGF121): 2.9 | fold binding over CHO background (wild-type hVEGF121): 31.8 fold | Raw data (ELISA signal) (hVEGF121-M81A): 1.22 | fold binding over CHO background (hVEGF121-M81A): 13.4 fold | Raw data (ELISA signal) (hVEGF121-Q89A): 0.296 | fold binding over CHO background (hVEGF121-Q89A): 3.3 fold | Raw data (ELISA signal) (hVEGF121-G88S [14]): 0.0951 | fold binding over CHO background (hVEGF121-G88S [14]): 1 fold
